# According to the supplement of paper PMC10201428:
# ± gives the standard deviation of the averaged measurements.
# Assays:
# [1] = system: VchCAST RNA-guided transposition machinery (E. coli BL21(DE3) host, lacZ target); test: relative integration efficiency (T-LR orientation) vs wild-type transposon end (log2 (normalized fold change)); transposon end mutated: right end (5 bp flank + 75 bp right end); higher = more efficient transposition
# In short: (§1)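 Barcoded pools of 1549 left-end or 1849 right-end transposon variants were cloned into a pUC57 mini-transposon donor. Each pool was co-transformed with a T7-driven effector plasmid (CRISPR array, tniQ-cas8-cas7-cas6, tnsA-tnsB-tnsC) into E. coli BL21(DE3) and plated with 0.1 mM IPTG at 37°C for 18 h. Input plasmids and genomic integration junctions were PCR-amplified and Illumina-sequenced, with two biological output replicates and four wild-type barcodes as reference. Relative integration efficiency is output/input barcode abundance fold change, normalised to wild-type barcodes and log-transformed.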
# [2] = system: VchCAST RNA-guided transposition machinery (E. coli BL21(DE3) host, lacZ target); test: relative integration efficiency (T-RL orientation) vs wild-type transposon end (log2 (normalized fold change)); transposon end mutated: right end (5 bp flank + 75 bp right end); higher = more efficient transposition
# In short: as §1
Sequence,relative integration efficiency (log2) [1],relative integration efficiency (log2) [2]
ACATTTGTTGATACAACCATAAGTTGATATTTTCAACCATAAAATGATAATTATCACACCCATAAATTGATAATTACTCTGATCATAGTCAGACCAACATTGCTACGACCCGTATTCGCACCGACAC,-0.376 ± 0.15,-0.162 ± 0.0022
ACATTTGTTGATACAACCATAAGTTGATATTTTCAACCATAAAATGATAATTATCACACCCATAAATTGATATTGCCTCTGATCATAGTCAGACCAACATTGCTACGACCCGTATTCGCACCGACAC,0.105 ± 0.58,0.367 ± 0.094
ACATTTGTTGATACAACCATAAGTTGATATTTTCAACCATAAAATGATAATTATCAGTGGGTATTTAACTATAACGCTCTGATCATAGTCAGACCAACATTGCTACGACCCGTATTCGCACCGACAC,2.48 ± 0.2,-0.962 ± 0.12
ACATTTGTTGATACAACCATAAGTTGATATTTTCAACCATAAAGTGATATTTATCACAACCATAAAATGATAATTACTCTGATCATAGTCAGACCAACATTGCTACGACCCGTATTCGCACCGACAC,-0.435 ± 0.24,-0.0697 ± 0.03
ACATTTGTTGATACAACCATAAGTTGATATTTTCAACCATAAAGTGATATTTATCACAACCATAAAGTGATATTTACTCTGATCATAGTCAGACCAACATTGCTACGACCCGTATTCGCACCGACAC,-0.067 ± 0.078,0.0778 ± 0.073
ACATTTGTTGATACAACCATAAGTTGATATTTTCAACCATAAAGTGATATTTATCACAACCATAAGTTGATATTTTCTCTGATCATAGTCAGACCAACATTGCTACGACCCGTATTCGCACCGACAC,-0.246 ± 0.14,0.119 ± 0.067
ACATTTGTTGATACAACCATAAGTTGATATTTTCAACCATAAAGTGATATTTATCACAACCATATATTGATATCTCCTCTGATCATAGTCAGACCAACATTGCTACGACCCGTATTCGCACCGACAC,-0.347 ± 0.053,-0.136 ± 0.014
ACATTTGTTGATACAACCATAAGTTGATATTTTCAACCATAAAGTGATATTTATCACACCCATAAATTGATAATTACTCTGATCATAGTCAGACCAACATTGCTACGACCCGTATTCGCACCGACAC,-0.0467 ± 0.44,-0.109 ± 0.07
ACATTTGTTGATACAACCATAAGTTGATATTTTCAACCATAAAGTGATATTTATCACACCCATAAATTGATATTGCCTCTGATCATAGTCAGACCAACATTGCTACGACCCGTATTCGCACCGACAC,-0.507 ± 0.46,-0.032 ± 0.064
ACATTTGTTGATACAACCATAAGTTGATATTTTCAACCATAAAGTGATATTTATCAGTGGGTATTTAACTATAACGCTCTGATCATAGTCAGACCAACATTGCTACGACCCGTATTCGCACCGACAC,2.69 ± 0.17,-0.687 ± 0.11
ACATTTGTTGATACAACCATAAGTTGATATTTTCAACCATAAGTTGATATTTTTCACAACCATAAAATGATAATTACTCTGATCATAGTCAGACCAACATTGCTACGACCCGTATTCGCACCGACAC,-0.0651 ± 0.34,0.228 ± 0.008
ACATTTGTTGATACAACCATAAGTTGATATTTTCAACCATAAGTTGATATTTTTCACAACCATAAAGTGATATTTACTCTGATCATAGTCAGACCAACATTGCTACGACCCGTATTCGCACCGACAC,-0.145 ± 0.024,0.196 ± 0.011
ACATTTGTTGATACAACCATAAGTTGATATTTTCAACCATAAGTTGATATTTTTCACAACCATAAGTTGATATTTTCTCTGATCATAGTCAGACCAACATTGCTACGACCCGTATTCGCACCGACAC,-0.207 ± 0.25,0.214 ± 0.079
ACATTTGTTGATACAACCATAAGTTGATATTTTCAACCATAAGTTGATATTTTTCACAACCATATATTGATATCTCCTCTGATCATAGTCAGACCAACATTGCTACGACCCGTATTCGCACCGACAC,-0.115 ± 0.22,-0.102 ± 0.021
ACATTTGTTGATACAACCATAAGTTGATATTTTCAACCATAAGTTGATATTTTTCACACCCATAAATTGATAATTACTCTGATCATAGTCAGACCAACATTGCTACGACCCGTATTCGCACCGACAC,-0.132 ± 0.17,0.0466 ± 0.027
ACATTTGTTGATACAACCATAAGTTGATATTTTCAACCATAAGTTGATATTTTTCACACCCATAAATTGATATTGCCTCTGATCATAGTCAGACCAACATTGCTACGACCCGTATTCGCACCGACAC,0.248 ± 0.18,0.348 ± 0.062
ACATTTGTTGATACAACCATAAGTTGATATTTTCAACCATAAGTTGATATTTTTCAGTGGGTATTTAACTATAACGCTCTGATCATAGTCAGACCAACATTGCTACGACCCGTATTCGCACCGACAC,2.85 ± 0.1,-0.302 ± 0.092
ACATTTGTTGATACAACCATAAGTTGATATTTTCAACCATATATTGATATCTCTCACAACCATAAAATGATAATTACTCTGATCATAGTCAGACCAACATTGCTACGACCCGTATTCGCACCGACAC,-0.461 ± 0.17,-0.54 ± 0.12

Sequence,relative integration efficiency (log2) [1],relative integration efficiency (log2) [2]
ACATTTGTTGATACAACCATAAGTTGATATTTTCAACCATATATTGATATCTCTCACAACCATAAAGTGATATTTACTCTGATCATAGTCAGACCAACATTGCTACGACCCGTATTCGCACCGACAC,-0.077 ± 0.032,-0.324 ± 0.14
ACATTTGTTGATACAACCATAAGTTGATATTTTCAACCATATATTGATATCTCTCACAACCATAAGTTGATATTTTCTCTGATCATAGTCAGACCAACATTGCTACGACCCGTATTCGCACCGACAC,-0.0553 ± 0.32,-0.118 ± 0.16
ACATTTGTTGATACAACCATAAGTTGATATTTTCAACCATATATTGATATCTCTCACAACCATATATTGATATCTCCTCTGATCATAGTCAGACCAACATTGCTACGACCCGTATTCGCACCGACAC,0.206 ± 0.098,-0.28 ± 0.11
ACATTTGTTGATACAACCATAAGTTGATATTTTCAACCATATATTGATATCTCTCACACCCATAAATTGATAATTACTCTGATCATAGTCAGACCAACATTGCTACGACCCGTATTCGCACCGACAC,0.134 ± 0.11,-0.464 ± 0.15
ACATTTGTTGATACAACCATAAGTTGATATTTTCAACCATATATTGATATCTCTCACACCCATAAATTGATATTGCCTCTGATCATAGTCAGACCAACATTGCTACGACCCGTATTCGCACCGACAC,-0.117 ± 0.12,-0.363 ± 0.0055
ACATTTGTTGATACAACCATAAGTTGATATTTTCAACCATATATTGATATCTCTCAGTGGGTATTTAACTATAACGCTCTGATCATAGTCAGACCAACATTGCTACGACCCGTATTCGCACCGACAC,2.4 ± 0.039,-1.15 ± 0.24
ACATTTGTTGATACAACCATAAGTTGATATTTTCACCCATAAATTGATAATTATCACAACCATAAAATGATAATTACTCTGATCATAGTCAGACCAACATTGCTACGACCCGTATTCGCACCGACAC,-0.584 ± 0.047,-0.0424 ± 0.077
ACATTTGTTGATACAACCATAAGTTGATATTTTCACCCATAAATTGATAATTATCACAACCATAAAGTGATATTTACTCTGATCATAGTCAGACCAACATTGCTACGACCCGTATTCGCACCGACAC,-0.211 ± 0.3,-0.345 ± 0.068
ACATTTGTTGATACAACCATAAGTTGATATTTTCACCCATAAATTGATAATTATCACAACCATAAGTTGATATTTTCTCTGATCATAGTCAGACCAACATTGCTACGACCCGTATTCGCACCGACAC,-0.0829 ± 0.01,-0.215 ± 0.056
ACATTTGTTGATACAACCATAAGTTGATATTTTCACCCATAAATTGATAATTATCACAACCATATATTGATATCTCCTCTGATCATAGTCAGACCAACATTGCTACGACCCGTATTCGCACCGACAC,-0.455 ± 0.14,-0.64 ± 0.15
ACATTTGTTGATACAACCATAAGTTGATATTTTCACCCATAAATTGATAATTATCACACCCATAAATTGATAATTACTCTGATCATAGTCAGACCAACATTGCTACGACCCGTATTCGCACCGACAC,2.73 ± 0.044,2.44 ± 0.29
ACATTTGTTGATACAACCATAAGTTGATATTTTCACCCATAAATTGATAATTATCACACCCATAAATTGATATTGCCTCTGATCATAGTCAGACCAACATTGCTACGACCCGTATTCGCACCGACAC,-0.177 ± 0.84,0.0993 ± 0.059
ACATTTGTTGATACAACCATAAGTTGATATTTTCACCCATAAATTGATAATTATCAGTGGGTATTTAACTATAACGCTCTGATCATAGTCAGACCAACATTGCTACGACCCGTATTCGCACCGACAC,2.55 ± 0.051,-1 ± 0.34
ACATTTGTTGATACAACCATAAGTTGATATTTTCACCCATAAATTGATATTGCTCACAACCATAAAATGATAATTACTCTGATCATAGTCAGACCAACATTGCTACGACCCGTATTCGCACCGACAC,-0.0881 ± 0.35,-0.631 ± 0.13
ACATTTGTTGATACAACCATAAGTTGATATTTTCACCCATAAATTGATATTGCTCACAACCATAAAGTGATATTTACTCTGATCATAGTCAGACCAACATTGCTACGACCCGTATTCGCACCGACAC,-0.333 ± 0.49,-0.377 ± 0.053
ACATTTGTTGATACAACCATAAGTTGATATTTTCACCCATAAATTGATATTGCTCACAACCATAAGTTGATATTTTCTCTGATCATAGTCAGACCAACATTGCTACGACCCGTATTCGCACCGACAC,-0.109 ± 0.43,-0.281 ± 0.16
ACATTTGTTGATACAACCATAAGTTGATATTTTCACCCATAAATTGATATTGCTCACAACCATATATTGATATCTCCTCTGATCATAGTCAGACCAACATTGCTACGACCCGTATTCGCACCGACAC,0.0122 ± 0.21,-0.904 ± 0.14
